Data reported in patent US9433687B2, “Anti-Notch3 antibodies and antibody-drug conjugates” (Pfizer Inc., priority 2012, dated 2016).

Assays:
human Notch1 NRR-Fc = molecular target: T1, human Notch1 NRR-Fc (Homo sapiens, UniProt P46531); assay: Binding to Notch1 NRR-Fc; conditions: N/B = non-binding
T1 construct: Expression constructs encoding human Notch1 and Notch2 NRR regions, fused with human IgG1 Fc fragments; made in house; host or cells: CHO-PACE cells
T1 sequence (P46531 1446-1733 limits assumed): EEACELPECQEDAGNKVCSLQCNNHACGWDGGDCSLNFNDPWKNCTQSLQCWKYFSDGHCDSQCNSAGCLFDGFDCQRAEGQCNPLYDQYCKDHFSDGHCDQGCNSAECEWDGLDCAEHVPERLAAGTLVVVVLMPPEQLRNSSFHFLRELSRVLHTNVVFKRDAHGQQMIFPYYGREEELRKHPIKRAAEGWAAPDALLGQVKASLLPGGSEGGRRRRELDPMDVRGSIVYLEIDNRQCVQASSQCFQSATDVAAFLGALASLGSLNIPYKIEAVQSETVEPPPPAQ
From the text: (§1) Other members of the Notch receptor family play important roles in biological processes. For example, a Notch1 or Notch2 deficiency leads to embryonic death in mouse models. In contrast, a Notch4 deficiency results in no detectable phenotype in mouse models. The closest homologues of the Notch3 NRR region are Notch1 and Notch2 (˜50% homology), and Notch4 is a more distant homologue (˜30% homology). Cross-reactivity of anti-Notch3 antibodies to other members of the Notch family, especially Notch1 and 2, may lead to undesired effects in patients. Therefore, the potential cross-reactivity of r28 and hu28, along with r75 and hu75 to other Notch family members were assessed.
(§2) Expression constructs encoding human Notch1 and Notch2 NRR regions, fused with human IgG1 Fc fragments were stably introduced into CHO-PACE cells. Conditioned media from these cells expressing NRR-Fc fusions were collected. Human Notch2 NRR-Fc and human Notch1 NRR-Fc were purified by protein A affinity followed by size exclusion chromatography (SEC). Purified preparations were dialysed into TBS with 1 mM CaCl2 and analyzed on analytical SEC to be >99% in purity.

[1] = molecular target: T2, human Notch3 NRR recombinant protein (Homo sapiens, UniProt Q9UM47); assay: Surface plasmon resonance (Biacore) kinetic analysis; type: binding; conditions: antibody captured; 1:1 Langmuir model
T2 construct: made in house
T2 sequence (Q9UM47 with tags, fused parts or gaps): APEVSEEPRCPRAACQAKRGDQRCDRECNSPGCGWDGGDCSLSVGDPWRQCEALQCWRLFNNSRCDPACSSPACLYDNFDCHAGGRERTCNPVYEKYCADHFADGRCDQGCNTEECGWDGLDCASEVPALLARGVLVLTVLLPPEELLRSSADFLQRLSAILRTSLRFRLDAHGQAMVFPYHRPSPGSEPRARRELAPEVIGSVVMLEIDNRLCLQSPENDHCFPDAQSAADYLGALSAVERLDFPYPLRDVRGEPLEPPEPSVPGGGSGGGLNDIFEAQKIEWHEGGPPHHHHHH
Procedure: The kinetic constants of the anti-Notch3 NRR interactions were determined by surface plasmon resonance (Biacore® T100, Biacore Inc., Piscataway, N.J.). Flow cells of a CM5 chip were immobilized with approximately 10,000 response units (RU) of anti-human IgG-Fc (Biacore®) in 10 mM Glycine, pH 5.0 at 10 μl/min for 600 seconds. 10 μg/ml of anti-Notch3 antibodies ch28 and hu28, and ch75 and hu75 were diluted in TBS with 1 mM CaCl2 were captured at 10 μl/min. Association of four concentrations of human Notch3 NRR recombinant protein (from 3.7-100 nM) and a zero concentration (running buffer) at 100 μl/min were recorded for 3 minutes in TBS with 1 mM CaCl2. Dissociation of the complexes was measured for 10 minutes. The surface of the chip was regenerated by injecting 3M MgCl2 with 3 mM EGTA for 60 seconds at 10 μl/min. Curves obtained after subtraction of the reference and buffer signals were fitted to a 1:1 Langmuir binding model with Biacore® T100 Evaluation Software (Biacore®).

human Notch2 NRR-Fc = molecular target: T3, human Notch2 NRR-Fc (Homo sapiens, UniProt Q04721); assay: Binding to Notch2 NRR-Fc; conditions: N/B = non-binding
T3 construct: Expression constructs encoding human Notch1 and Notch2 NRR regions, fused with human IgG1 Fc fragments; made in house; host or cells: CHO-PACE cells
T3 sequence (Q04721 1425-1677 limits assumed): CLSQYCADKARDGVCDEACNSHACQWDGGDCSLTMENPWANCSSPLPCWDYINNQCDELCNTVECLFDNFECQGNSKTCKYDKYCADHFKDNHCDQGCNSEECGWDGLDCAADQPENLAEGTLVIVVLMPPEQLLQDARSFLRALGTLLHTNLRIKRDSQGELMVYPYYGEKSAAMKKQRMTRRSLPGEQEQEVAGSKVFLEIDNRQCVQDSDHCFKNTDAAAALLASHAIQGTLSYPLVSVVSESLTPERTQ
From the text: as §1, §2

[2] = Thermal stability by differential scanning calorimetry (DSC); type: physicochemical; conditions: 0.3 mg/ml in PBS
Procedure: There is a positive correlation between the thermal stability of a protein or protein domain with the overall stability of the protein or protein domain. A higher melting point of a protein or protein domain often provides improved manufacturability and longer shelf life. Differential scanning calorimetry (DSC) was used to assess the thermal stability of hu28 and hu75 versus ch28 and ch75, respectively. Protein samples were diluted in PBS to 0.3 mg/ml in a volume of 250 μl. The corresponding formulation buffer blank was used for the reference sample. Both samples were thoroughly degassed using a MicroCal ThermoVac Sample Degassing and Thermostat (Microcal, Inc., Northampton, Mass.) set to 8° C. Samples were dispensed into the appropriate cells of a MicroCal VP-DSC Capillary Cell MicroCalorimter (MicroCal, Inc., Northampton, Mass.). Samples were equilibrated for 4 minutes at 15° C. and then scanned up to 100° C. at a rate of 100° C. per hour. A filtering period of 20 seconds was selected. Raw data was baseline corrected and the protein concentration was normalized. Origin Software (OriginLab Corporation, Northampton, Mass.) was used to fit the data to an MN2-State Model with an appropriate number of transitions.

Molecule	Binding to Notch1 NRR-Fc (human Notch1 NRR-Fc)	ka [1] [M⁻¹ s⁻¹]	kd [1] [s⁻¹]	Binding to Notch2 NRR-Fc (human Notch2 NRR-Fc)	Tm ± Standard Deviation, CH2 [2] [°C]	Tm ± Standard Deviation, CH3 [2] [°C]	Tm ± Standard Deviation, Fab [2] [°C]
ch75: rat-human chimeric anti-Notch3 antibody 75, rat variable regions fused with human IgG1 and human kappa (antibody, V domains shown) VH: QVKLLQSGAALVKPGASVKMSCKASGYAFTDYWVTWVKQSHGKSLEWIGEISPNSGGTNFNEKFKGKATLTVDKSTSTAYMELSRLTSEDSAIYYCTRGEIRYNWFAYWGQGTLVTVSS VL: NIVMTQSPKSMSISVGDRVTMNCKASQNVGNNIAWYQQKPGQSPKLLIYYASNRYTGVPDRFTGGGYGTDFTLTINSMQAEDAAFYYCQRLYNSPFTFGSGTKLEIK	N/B	57000	0.000992	N/B	73.32 ± 0.01	84.59 ± 0.03	73.32 ± 0.01
hu28 VH1.0/VL1.0: humanized r28 variant VH1.0/VL1.0, anti-Notch3 antibody (VH SEQ ID NO: 13, VL SEQ ID NO: 25) (antibody, V domains shown) VH: EVQLVESGGGLVQPGGSLRLSCAASGFTFRDYGMTWVRQAPGKGLEWVAYISSGSNYIYYAEAVKGRFTISRDNAKNSLYLQMNSLRAEDTAVYYCARRGPFVLDAWGQGTLVTVSS VL: DIQMTQSPSSLSASVGDRVTITCKASQSINRYLHWYQQKPGKAPKLLIYNANGLQTGVPSRFSGSGSGTDFTLTISSLQPEDFATYYCLQHNTWPDTFGGGTKVEIK	N/B	386000	0.000347	N/B	72.63 ± 0.03	83.45 ± 0.17	83.45 ± 0.17
